From paper PMC4526890, “Crystal structures of Mycobacterium tuberculosis GlgE and complexes with non-covalent inhibitors” (Scientific Reports, 2015)

Molecular target: T1, Mycobacterium tuberculosis GlgE (Mycobacterium tuberculosis), P9WQ17
T1 chain: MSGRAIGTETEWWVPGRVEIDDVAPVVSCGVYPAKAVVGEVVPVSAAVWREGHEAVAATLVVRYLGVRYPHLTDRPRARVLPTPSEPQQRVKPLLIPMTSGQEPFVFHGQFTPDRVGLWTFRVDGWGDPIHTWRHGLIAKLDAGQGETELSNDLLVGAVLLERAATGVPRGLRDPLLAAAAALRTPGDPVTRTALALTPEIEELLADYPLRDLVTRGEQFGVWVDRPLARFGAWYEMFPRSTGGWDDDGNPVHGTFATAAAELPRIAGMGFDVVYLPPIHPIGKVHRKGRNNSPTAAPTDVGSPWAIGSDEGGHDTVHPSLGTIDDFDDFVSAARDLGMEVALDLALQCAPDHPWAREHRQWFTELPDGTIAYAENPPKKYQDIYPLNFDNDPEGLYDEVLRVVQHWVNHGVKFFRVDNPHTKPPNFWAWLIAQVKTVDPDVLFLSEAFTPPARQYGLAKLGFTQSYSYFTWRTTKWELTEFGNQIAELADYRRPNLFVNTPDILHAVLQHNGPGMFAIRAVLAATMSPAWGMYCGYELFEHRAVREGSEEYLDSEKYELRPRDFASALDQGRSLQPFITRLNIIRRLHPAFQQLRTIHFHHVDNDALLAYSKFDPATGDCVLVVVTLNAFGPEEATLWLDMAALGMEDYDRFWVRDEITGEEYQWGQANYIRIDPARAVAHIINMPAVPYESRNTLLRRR
Assay: crystal structure; Mtb GlgE co-crystallised with 10 mM maltose (hanging drop, 0.1 M HEPES pH 7.5, 1.0 M ammonium formate), 3.3 Å; the same crystals soaked with 10 mM maltohexaose, 4.0 Å; homodimer seen in the crystal
Settings: remark: other sources report otherwise

B1: Mycobacterium tuberculosis GlgE, P9WQ17 1-701 (enzyme)
chain: T1 chain
stoichiometry N: 2
